Assay results from PMC7368063, “An FGF15/19-TFEB regulatory loop controls hepatic cholesterol and bile acid homeostasis”.

Molecular target: TFEB (rhTFEB) (human, UniProt P19484 1-476)
Experiment: EMSA; EMSA kit with SYBR green (Thermo Fisher), 5 pmol annealed probe, 200 ng rhTFEB; buffer, salt, pH and temperature not stated
Conditions: protein: commercial; chain copies: 2

TFEB (rhTFEB), sequence (P19484 whole entry): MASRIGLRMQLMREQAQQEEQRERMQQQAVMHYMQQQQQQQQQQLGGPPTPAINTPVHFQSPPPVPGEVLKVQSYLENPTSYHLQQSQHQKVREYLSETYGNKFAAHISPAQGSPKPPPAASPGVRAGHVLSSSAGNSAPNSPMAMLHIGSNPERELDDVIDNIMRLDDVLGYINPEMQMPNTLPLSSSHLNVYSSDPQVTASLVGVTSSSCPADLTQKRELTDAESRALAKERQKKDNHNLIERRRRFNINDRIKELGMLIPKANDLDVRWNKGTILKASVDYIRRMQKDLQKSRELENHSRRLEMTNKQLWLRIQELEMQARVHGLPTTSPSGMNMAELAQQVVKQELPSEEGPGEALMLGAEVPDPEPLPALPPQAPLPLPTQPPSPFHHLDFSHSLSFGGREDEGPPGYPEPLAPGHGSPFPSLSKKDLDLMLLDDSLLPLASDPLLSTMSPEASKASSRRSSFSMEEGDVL

B1: NPC2 CLEAR probe (positive control) (dsDNA)
DNA 1: GCGCGGGCGGGCCTCAGCTGTGGTTACTGGTGACAGGTCGCCTGA
DNA 2: TCAGGCGACCTGTCACCAGTAACCACAGCTGAGGCCCGCCCGCGC
  binding result: binds
